Earlier results on 2 substances are cited in PMC4815360.

pKd: −log10 of the molar value.

Data set [1] has as its target Endothelin receptor ETA (Homo sapiens) (UniProt P25101). Description: radioligand.
Data set [2] has as its target Endothelin receptor ETA (Rattus norvegicus) (UniProt P26684). Nature of the data set: radioligand.
Data set [3] has the same target. Description: radioligand binding.
The target of data set [4] is Endothelin receptor ETA (Homo sapiens) (UniProt P25101). Nature of the data set: saturation radioligand binding.

Chain of UniProt P26684 (P26684 21-426): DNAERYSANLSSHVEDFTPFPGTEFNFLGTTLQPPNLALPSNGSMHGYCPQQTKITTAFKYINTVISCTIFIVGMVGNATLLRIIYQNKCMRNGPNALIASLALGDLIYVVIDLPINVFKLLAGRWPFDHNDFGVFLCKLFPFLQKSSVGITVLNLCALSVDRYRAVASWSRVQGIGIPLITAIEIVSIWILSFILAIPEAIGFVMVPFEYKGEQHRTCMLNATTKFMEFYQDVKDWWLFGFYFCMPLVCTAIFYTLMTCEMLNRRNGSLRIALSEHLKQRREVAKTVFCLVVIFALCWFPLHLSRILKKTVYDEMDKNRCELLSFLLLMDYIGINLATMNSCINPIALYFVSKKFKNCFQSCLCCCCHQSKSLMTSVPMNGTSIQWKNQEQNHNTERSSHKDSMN
Chain of UniProt P25101 (P25101 21-427): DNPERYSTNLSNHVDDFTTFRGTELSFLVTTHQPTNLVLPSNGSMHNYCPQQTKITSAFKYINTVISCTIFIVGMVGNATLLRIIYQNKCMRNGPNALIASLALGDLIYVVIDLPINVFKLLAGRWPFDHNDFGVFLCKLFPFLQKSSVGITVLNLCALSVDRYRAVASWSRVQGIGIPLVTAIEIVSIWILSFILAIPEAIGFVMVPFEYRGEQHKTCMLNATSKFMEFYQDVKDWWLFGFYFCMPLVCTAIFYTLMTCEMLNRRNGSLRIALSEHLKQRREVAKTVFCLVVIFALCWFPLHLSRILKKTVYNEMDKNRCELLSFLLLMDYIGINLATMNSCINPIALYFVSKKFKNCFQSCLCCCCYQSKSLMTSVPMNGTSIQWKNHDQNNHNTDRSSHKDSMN

Usually pKd stands for −log10 of the Kd, conventionally taken in molar units. For Endothelin-1 (from UniProt P05305), the values for the pKd in data set [1] and in data set [2] were 9.40 and 10.00, respectively.
Regarding Endothelin-2 (from UniProt P20800), the pKd in data set [3] is 10.00; in data set [4] it was 9.15.
